# Biological target: T1, Lmo1172 (UniProt Q92CN5)
# T1 sequence: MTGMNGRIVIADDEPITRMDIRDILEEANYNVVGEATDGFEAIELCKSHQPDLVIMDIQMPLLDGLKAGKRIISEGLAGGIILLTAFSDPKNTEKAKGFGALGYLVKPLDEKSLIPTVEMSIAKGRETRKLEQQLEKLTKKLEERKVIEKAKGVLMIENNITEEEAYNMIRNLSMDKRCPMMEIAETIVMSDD
# Experiment: EMSA
# Conditions: EMSA: 200 ng DNA in Beyotime binding buffer, 6% non-denaturing PAGE, ethidium bromide staining; salt, pH and temperature not stated
sequence,measurement,value
CTAATTCACCTCCACTAATATTTTACAACGAATTTACCCATAATAACCAAAAATGTAATGAAATGTCCGATTCTTGTCATGAACGACCAAAAAAGAGCAGAATTGCCGATTTTTTGGATACATTTCAGAATATTCGAACGTGTAAAAAGGACTGTATAATAGGCTTAAAAACCCATATTAATATTTTATTTAAGTGAGTTTATTCATAAAAAAAACCAACTGCAAAAGAATGTTCACAGTTGGCTTTTCCATTTTA (double strand) [P2 promoter DNA],binding,no binding

# — PMC10891604
